Data on 29 sequences can be found in the supplement of paper PMC10567573.

This series can be described thus: protein stability index of a GFP-peptide fusion (GPS, HEK-293T) (PSI 1-6); higher = more stable. The following applies: c terminus: a fixed tail appended.

± gives the standard deviation.
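Note: 24-mer peptide tiles fused after GFP, lentivirally expressed, FACS-sorted into six equal bins by GFP/DsRed ratio, decoded by Illumina sequencing, PSI is the read-weighted mean bin number.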

As to PERLHAIKEQLIQEGLLDRCVSFQ [HDAC6], the protein stability index by setting is: (treatment: DMSO) 2.88 ± 0.11; (treatment: MLN4924 1 uM, 8 h) 3.18 ± 0.12.
On the same counts, the results for QVLNETRSQYEALVETNRREVEQW [KRT34] are 4.3 ± 0.22 and 4.6 ± 0.1.
On the same counts, the results for PLFSEDVVLKLFLSFSGSDVQNKL [SNX8] are 2.1 ± 0.45 and 2.31 ± 0.39.
On the same counts, the results for APQNSFSAKLAPHYFHSISYKIEE [KCNK9] are 3.21 ± 0.12 and 3.34 ± 0.16.
Regarding ESLTEDEATQFLKQILDGVHYLHS [DAPK3], the protein stability index runs as follows: (treatment: DMSO) 3.06 ± 0.28; (treatment: MLN4924 1 uM, 8 h) 3.29 ± 0.28.
Take TLALLLNFLACLASFCVETNNGAG [SCAMP3]: the protein stability index reads like this: (treatment: DMSO) 3.06 ± 0.2; (treatment: MLN4924 1 uM, 8 h) 2.88 ± 0.89.
On the same counts, the results for LKFHKLVNVTIHFRLKTINLQSLI [MCOLN1] are 3.17 ± 0.37 and 3.12 ± 0.31.
Consider LTISPKAARVGLLQYSTQVHTEFT [MATN2], for which the protein stability index (treatment: MLN4924 1 uM, 8 h) is 2.436 ± 0.019.
With KQNPSRQEVTKLQQQVKTNGAGVT [FBXO28], the protein stability index came to 4.68 ± 0.2 (treatment: DMSO) and 4.47 ± 0.35 (treatment: MLN4924 1 uM, 8 h).
As to PEGARRGLGVLRALGSRGWEPFDW [FANCE], the protein stability index (treatment: DMSO) amounted to 3.05 ± 0.34 and the protein stability index (treatment: MLN4924 1 uM, 8 h) turned out to be 2.98 ± 0.42.
For the sequence HLSSQQASGQSYSSREVFTSSSSS [KRT16], the protein stability index is 4.63 ± 0.21 (treatment: DMSO) and 4.58 ± 0.17 (treatment: MLN4924 1 uM, 8 h).
On the same counts, the results for EEGPTVVLNPHPSLGYKEIRKGES [CHGA] are 4.96 ± 0.29 and 5.03 ± 0.27.
On the same counts, the results for NNDDDEDEDDEDEDEDEDEDEDED [TAF7L] are 5.57 ± 0.15 and 5.55 ± 0.23.
On the same counts, the results for PQVPPSQPLRPWAGGDVPHKTHQA [DYRK1B] are 4.41 ± 0.32 and 4.63 ± 0.21.
Sequence HAAQGGPLLCPGCQGQPQGKAVVS [ELOA2] returned a protein stability index (treatment: DMSO) of 3.9 ± 0.36 and a protein stability index (treatment: MLN4924 1 uM, 8 h) of 4.09 ± 0.24.
On the same counts, the results for LTAKQLIKSIVEASKGCQLGKTEQ [TRIM63] are 2.57 ± 0.18 and 2.38 ± 0.6.
On the same counts, the results for PAAPTPESFTVHFLPLNSAQTLHH [DNAAF3] are 2.87 ± 0.22 and 3.02 ± 0.23.
On the same counts, the results for TRLLLQFTQPQQTSFALERNLRTQ [C8orf76] are 2.33 ± 0.46 and 2.52 ± 0.27.
Turning to LRQLRELEEQFALEAGGYQAGAAR [PRPH], the protein stability index by setting is: (treatment: DMSO) 4.07 ± 0.3; (treatment: MLN4924 1 uM, 8 h) 4.24 ± 0.084.
Consider APLLPHITATSLLGTRESDTEVIT [BCL2L13], for which the protein stability index reads like this: (treatment: DMSO) 4.58 ± 0.26; (treatment: MLN4924 1 uM, 8 h) 4.47 ± 0.2.
On the same counts, the results for PKPSGLEPGPAAYGLKPLTPNSKY [KCTD13] are 4.42 ± 0.23 and 4.22 ± 0.26.
On the same counts, the results for ELEDKDGLQSAQPTEGQGSLLTNW [MYBL2] are 5.03 ± 0.36 and 5.35 ± 0.31.
On the same counts, the results for RTHTGEQPYTCSICRRNFSRRSSL [ZNF75A] are 3.19 ± 0.44 and 3.67 ± 0.47.
Regarding IAIARLRGSDLKVLEVTEESIDFD [FBXO33], the protein stability index runs as follows: (treatment: DMSO) 2.73 ± 0.3; (treatment: MLN4924 1 uM, 8 h) 2.77 ± 0.47.
On the same counts, the results for LKSAKDLPPDALIIEYRGKFMLRE [KMT2E] are 2.15 ± 0.4 and 2.38 ± 0.43.
On the same counts, the results for FRDAAEEGGTAVTGGQTVVNPWII [SEPHS2] are 3.45 ± 0.2 and 3.54 ± 0.26.
On the same counts, the results for PAPAPLVPQDPDLEEEEEEEDLVL [ZBTB22] are 5.59 ± 0.33 and 5.69 ± 0.2.
Regarding GYSLADWVCLAYFTSGFNAAALDY [SPACA3], the protein stability index is, setting by setting: (treatment: DMSO) 3.33 ± 0.44; (treatment: MLN4924 1 uM, 8 h) 2.98 ± 0.13.
For the sequence VSGINHDVTSGDHGDYFRLLLPGI [CPN1], the protein stability index (treatment: DMSO) is 2.46 ± 0.28 and the protein stability index (treatment: MLN4924 1 uM, 8 h) was found to be 2.23 ± 0.38.
